Measured values from patent publication US20120149881A1 (Genentech, published 2012).

B1: murine anti-IgE/M1′ antibody 45C1 (antibody, V domains shown)
VH: QIQLVQSGPELKKPGETVKISCKASGYTFTNYGMNWVKQAPGKGLKWMGWINTYTGEPTYVDDFKGRFAFSLETSASTAYLQINNLKNEDMATYFCARGIYYDNDDIYWGQGTILTVSS
VL: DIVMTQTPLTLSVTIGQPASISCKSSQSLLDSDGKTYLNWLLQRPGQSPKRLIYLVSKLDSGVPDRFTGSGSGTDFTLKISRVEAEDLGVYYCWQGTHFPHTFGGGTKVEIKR
notes: murine hybridoma antibody; also called 45C1.6.14
B2: murine anti-IgE/M1′ antibody 1C11 (antibody, V domains shown)
VH: QVQLQQSGAELVRPGASVTLSCKASGYTFTDFEMHWVKQTPVHGLEWIGAIAPETGTSAYNQKFRGKATLTADISSSTAYMDLRSLTSEDSAVYYCTIYYAAPWFAYWGQGTLVTVSS
VL: DIVMSQSPSSLAVSVGEKVTMSCKSSQSLLYSSNQKNYLAWYQQKPGQSPKLLIYWASTRESGVPDRFTGSGSVTDFPLTISSVKAEDLAVYYCQQYYSYPYTFGGGTKVEIKR
notes: murine hybridoma antibody; also called 1C11.10.20
B3: humanized anti-IgE/M1′ antibody 47H4.v1 (antibody, V domains shown)
VH: EVQLVESGGGLVQPGGSLRLSCAASGFTFSDYGMAWVRQAPGKGLEWVAFISDLAYTIYYADTVTGRFTISRDNSKNTLYLQMNSLRAEDTAVYYCARDNWDAMDYWGQGTLVTVSS
VL: DIQMTQSPSSLSASVGDRVTITCRSSQSLVHNNGNTYLHWYQQKPGKAPKLLIYKVSNRFSGVPSRFSGSGSGTDFTLTISSLQPEDFATYYCSQNTLVPWTFGQGTKVEIKR
notes: direct CDR graft, produced as IgG
B4: humanized anti-IgE/M1′ antibody 47H4.v2 (antibody, V domains shown)
VH: EVQLVESGGGLVQPGGSLRLSCAASGFTFSDYGMAWVRQAPGKGLEWVAFISDLAYTIYYADTVTGRFTISRDNSKNTLYLQMNSLRAEDTAVYYCARDNWDAMDYWGQGTLVTVSS
VL: DIQMTQSPSSLSASVGDRVTITCRSSQSLVHNNANTYLHWYQQKPGKAPKLLIYKVSNRFSGVPSRFSGSGSGTDFTLTISSLQPEDFATYYCSQNTLVPWTFGQGTKVEIKR
notes: produced as IgG
B5: humanized anti-IgE/M1′ antibody 47H4.v3 (antibody, V domains shown)
VH: EVQLVESGGGLVQPGGSLRLSCAASGFTFSDYGIAWVRQAPGKGLEWVAFISDLAYTIYYADTVTGRFTISRDNSKNTLYLQMNSLRAEDTAVYYCARDNWDALDYWGQGTLVTVSS
VL: DIQMTQSPSSLSASVGDRVTITCRSSQSLVHNNGNTYLHWYQQKPGKAPKLLIYKVSNRFSGVPSRFSGSGSGTDFTLTISSLQPEDFATYYCSQNTLVPWTFGQGTKVEIKR
notes: produced as IgG
B6: humanized anti-IgE/M1′ antibody 47H4.v4 (antibody, V domains shown)
VH: EVQLVESGGGLVQPGGSLRLSCAASGFTFSDYGIAWVRQAPGKGLEWVAFISDLAYTIYYADTVTGRFTISRDNSKNTLYLQMNSLRAEDTAVYYCARDNWDALDYWGQGTLVTVSS
VL: DIQMTQSPSSLSASVGDRVTITCRSSQSLVHNNANTYLHWYQQKPGKAPKLLIYKVSNRFSGVPSRFSGSGSGTDFTLTISSLQPEDFATYYCSQNTLVPWTFGQGTKVEIKR
notes: produced as IgG
B7: humanized anti-IgE/M1′ antibody 26A11.v1 (antibody, V domains shown)
VH: EVQLVESGGGLVQPGGSLRLSCAASGYTFTDYYMMWVRQAPGKGLEWVGDINPNNYDTSYNQKFKGRFTISADTSKNTAYLQMNSLRAEDTAVYYCASKAYWGQGTLVTVSS
VL: DIQMTQSPSSLSASVGDRVTITCRSSQDISNSLNWYQQKPGKAPKLLIYSTSRLHSGVPSRFSGSGSGTDFTLTISSLQPEDFATYYCQQGHTLPWTFGQGTKVEIKR
notes: direct CDR graft, produced as IgG in 293 cells
B8: humanized anti-IgE/M1′ antibody 26A11.v2 (antibody, V domains shown)
VH: EVQLVESGGGLVQPGGSLRLSCAASGYTFTDYYMMWVRQAPGKGLEWVGDINPNNYDTSYNQKFKGRFTISADTSKNTAYLQMNSLRAEDTAVYYCASKAYWGQGTLVTVSS
VL: DIQMTQSPSSLSASVGDRVTITCRSSQDISNALNWYQQKPGKAPKLLIYSTSRLHSGVPSRFSGSGSGTDFTLTISSLQPEDFATYYCQQGHTLPWTFGQGTKVEIKR
notes: produced as IgG
B9: humanized anti-IgE/M1′ antibody 26A11.v3 (antibody, V domains shown)
VH: EVQLVESGGGLVQPGGSLRLSCAASGYTFTDYYMMWVRQAPGKGLEWVGDINPNNYDTSYNQKFKGRFTISADTSKNTAYLQMNSLRAEDTAVYYCASKAYWGQGTLVTVSS
VL: DIQMTQSPSSLSASVGDRVTITCRSSQDISNYLNWYQQKPGKAPKLLIYSTSRLHSGVPSRFSGSGSGTDFTLTISSLQPEDFATYYCQQGHTLPWTFGQGTKVEIKR
notes: produced as IgG
B10: humanized anti-IgE/M1′ antibody 26A11.v4 (antibody, V domains shown)
VH: EVQLVESGGGLVQPGGSLRLSCAASGYTFTDYYIMWVRQAPGKGLEWVGDINPNNYDTSYNQKFKGRFTISADTSKNTAYLQMNSLRAEDTAVYYCASKAYWGQGTLVTVSS
VL: DIQMTQSPSSLSASVGDRVTITCRSSQDISNSLNWYQQKPGKAPKLLIYSTSRLHSGVPSRFSGSGSGTDFTLTISSLQPEDFATYYCQQGHTLPWTFGQGTKVEIKR
notes: produced as IgG
B11: humanized anti-IgE/M1′ antibody 26A11.v5 (antibody, V domains shown)
VH: EVQLVESGGGLVQPGGSLRLSCAASGYTFTDYYIMWVRQAPGKGLEWVGDINPNNYDTSYNQKFKGRFTISADTSKNTAYLQMNSLRAEDTAVYYCASKAYWGQGTLVTVSS
VL: DIQMTQSPSSLSASVGDRVTITCRSSQDISNALNWYQQKPGKAPKLLIYSTSRLHSGVPSRFSGSGSGTDFTLTISSLQPEDFATYYCQQGHTLPWTFGQGTKVEIKR
notes: produced as IgG
B12: humanized anti-IgE/M1′ antibody 26A11.v13 (antibody, V domains shown)
VH: EVQLVESGGGLVQPGGSLRLSCAASGYTFTDYYMMWVRQAPGKGLEWVGDINPNNYDTSYNQKFKGRFTISADTSKNTAYLQMNSLRAEDTAVYYCASKAYWGQGTLVTVSS
VL: DIQMTQSPSSLSASVGDRVTITCRSSQDISSSLNWYQQKPGKAPKLLIYSTSRLHSGVPSRFSGSGSGTDFTLTISSLQPEDFATYYCQQGHTLPWTFGQGTKVEIKR
notes: produced as IgG
B13: humanized anti-IgE/M1′ antibody 26A11.v14 (antibody, V domains shown)
VH: EVQLVESGGGLVQPGGSLRLSCAASGYTFTDYYMMWVRQAPGKGLEWVGDINPNNYDTSYNQKFKGRFTISADTSKNTAYLQMNSLRAEDTAVYYCASKAYWGQGTLVTVSS
VL: DIQMTQSPSSLSASVGDRVTITCRSSQDISQSLNWYQQKPGKAPKLLIYSTSRLHSGVPSRFSGSGSGTDFTLTISSLQPEDFATYYCQQGHTLPWTFGQGTKVEIKR
notes: produced as IgG
B14: humanized anti-IgE/M1′ antibody 26A11.v15 (antibody, V domains shown)
VH: EVQLVESGGGLVQPGGSLRLSCAASGYTFTDYYIMWVRQAPGKGLEWVGDINPNNYDTSYNQKFKGRFTISADTSKNTAYLQMNSLRAEDTAVYYCASKAYWGQGTLVTVSS
VL: DIQMTQSPSSLSASVGDRVTITCRSSQDISSSLNWYQQKPGKAPKLLIYSTSRLHSGVPSRFSGSGSGTDFTLTISSLQPEDFATYYCQQGHTLPWTFGQGTKVEIKR
notes: produced as IgG
B15: humanized anti-IgE/M1′ antibody 26A11.v16 (antibody, V domains shown)
VH: EVQLVESGGGLVQPGGSLRLSCAASGYTFTDYYIMWVRQAPGKGLEWVGDINPNNYDTSYNQKFKGRFTISADTSKNTAYLQMNSLRAEDTAVYYCASKAYWGQGTLVTVSS
VL: DIQMTQSPSSLSASVGDRVTITCRSSQDISQSLNWYQQKPGKAPKLLIYSTSRLHSGVPSRFSGSGSGTDFTLTISSLQPEDFATYYCQQGHTLPWTFGQGTKVEIKR
notes: produced as IgG

What was measured:
[1] = target: T1, human IgE with the M1′ sequence (long form of membrane IgE) expressed on transduced BJAB or Daudi cells (human, UniProt P01854 116-546); assay: number printed in the titration panel; FIG. 3M calls these numbers 'Scatchard Results' (BJAB-Long cells)
T1 construct: Full-length heavy and light chains of the U266 IgE B cell receptor, retrovirally expressed; also called IgE/M1′; IgE-M1′
Protocol: In addition to relative affinity determinations by antibody titration and FACs detection, we also determined affinities of selected anti-MP antibodies to BJAB cell lines expressing IgE long form using Scatchard analysis. BJAB-Long cells were prepared for binding in cold Binding buffer composed of base media, with 10 mM HEPES pH 7.4, and 2% FBS as well as 40 μg/ml human IgG. Cells were diluted to a concentration of 1.7×10⁶ cells/ml, and kept on ice until added to the assay. The antibodies were iodinated with Iodogen method. Various concentrations of unlabelled antibody were prepared in triplicate, using a 1:2 dilution starting with the saturation concentration and ending at a concentration of zero, with a total of 14 concentrations. Iodinated antibody of a single concentration was added to all dilutions of the competitor unlabelled antibody. Lastly 250,000 BJAB-Long cells were added to each mixture of iodinated and unlabelled antibody. The samples were incubated at 4° C. for 4 hours, shaking. Each sample was then collected and filtered on a membrane, washed at least 3 times with binding buffer, allowed to dry and then measured for 1 minute using a Perkin Elmer Wizard 1470 Auto Gamma Counter.

[2] = target: T2, human IgE CH3-CH4-M1′/Fc fusion protein (human); assay: SPR Biacore A100, M1′ immobilized
T2 construct: also called M1′ (immobilized)

[3] = target: T2, human IgE CH3-CH4-M1′/Fc fusion protein; assay: SPR Biacore 2000, IgG immobilized, M1′-Fc analyte
[4] = target: T1, human IgE with the M1′ sequence (long …); assay: competitive ECL binding on BJAB-IgE/M1′ cells vs biotinylated 26A11 or 47H4, 1st IC50 column
[5] = target: T1, human IgE with the M1′ sequence (long …); assay: competitive ECL binding on BJAB-IgE/M1′ cells vs biotinylated 26A11 or 47H4, 2nd IC50 column
[6] = target: T1, human IgE with the M1′ sequence (long …); assay: Scatchard analysis on cells expressing human IgE/M1′
Protocol: The BJAB or Daudi cells expressing various forms of IgE with or without M1′ (Human, Rhesus, Cyno) were prepared for binding in cold Binding buffer composed of base media, with 10 mM HEPES pH 7.4, and 2% FBS as well as 40 ug/ml human IgG. Cells are diluted to concentration of 1.7×10⁶ cells/ml, and kept on ice until they are added to the assay. The proteins/antibodies are iodinated with the Iodogen method. Various concentrations of cold protein are prepared in triplicate, using a 1:2 dilution starting with the saturation concentration and ending at a concentration of zero, with a total of 14 concentrations. Hot protein of a single concentration is added to all dilutions compete with the cold protein. Lastly the cells are added to the hot and cold protein mixture, 250,000 cells per sample were used. Assay is kept at 4° C. for 4 hours, shaking. Each sample is then collected and filtered on membrane, washed at least 3 times with binding buffer, allowed to dry and then counted for 1 minute using Perkin Elmer Wizard 1470 Auto Gamma Counter.

[7] = target: T2, human IgE CH3-CH4-M1′/Fc fusion protein; assay: SPR Biacore 2000, M1′-Fc immobilized

T1 sequence (P01854 116-546 I515L limits assumed): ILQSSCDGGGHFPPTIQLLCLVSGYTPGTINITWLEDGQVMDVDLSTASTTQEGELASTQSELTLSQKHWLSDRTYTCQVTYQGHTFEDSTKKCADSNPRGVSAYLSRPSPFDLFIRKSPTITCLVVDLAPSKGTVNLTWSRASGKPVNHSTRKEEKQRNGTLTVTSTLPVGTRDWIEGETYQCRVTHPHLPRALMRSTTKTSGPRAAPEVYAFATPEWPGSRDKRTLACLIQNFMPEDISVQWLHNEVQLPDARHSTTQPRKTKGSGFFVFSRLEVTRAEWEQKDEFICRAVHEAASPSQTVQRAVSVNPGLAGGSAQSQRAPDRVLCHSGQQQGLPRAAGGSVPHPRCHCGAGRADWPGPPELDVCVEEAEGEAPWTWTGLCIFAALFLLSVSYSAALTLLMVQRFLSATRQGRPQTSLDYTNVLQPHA
T2 sequence (chain, as listed by the source limits assumed): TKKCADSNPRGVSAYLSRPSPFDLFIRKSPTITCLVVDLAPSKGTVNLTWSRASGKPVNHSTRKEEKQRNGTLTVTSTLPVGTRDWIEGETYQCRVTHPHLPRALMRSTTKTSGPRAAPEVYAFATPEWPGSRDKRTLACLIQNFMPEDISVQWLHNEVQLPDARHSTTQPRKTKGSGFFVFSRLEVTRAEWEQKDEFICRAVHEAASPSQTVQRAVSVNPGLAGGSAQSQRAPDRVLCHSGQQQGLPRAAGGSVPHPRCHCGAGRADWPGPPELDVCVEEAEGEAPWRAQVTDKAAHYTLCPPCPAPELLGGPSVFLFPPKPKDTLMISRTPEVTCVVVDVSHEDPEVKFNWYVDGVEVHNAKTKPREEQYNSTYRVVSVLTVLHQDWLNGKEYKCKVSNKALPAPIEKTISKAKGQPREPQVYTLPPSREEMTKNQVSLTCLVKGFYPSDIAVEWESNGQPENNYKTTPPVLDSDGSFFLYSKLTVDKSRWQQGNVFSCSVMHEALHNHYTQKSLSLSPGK

| Kd [1] [nM] | Kd [2] [nM] | Kd [3] [nM] | IC50 [4] [nM] | IC50 [5] [nM] | Kd [6] [nM] | Kd [7] [nM] | Binder |
| --- | --- | --- | --- | --- | --- | --- | --- |
| 16.8 |  |  |  |  |  |  | B1 |
| 2.7 |  |  |  |  |  |  | B2 |
|  | 7.8 | 3.1 | 12 | 18 | 0.37 |  | B3 |
|  | 7.4 | 2.8 | 38 |  | 0.54 |  | B4 |
|  | 69 |  | ~7600 |  |  |  | B5 |
|  | 56 |  |  |  |  |  | B6 |
|  | 0.2 | 9 | 15 | 19 | 1.06 | 1.7 | B7 |
|  | 0.3 |  | 18 |  |  |  | B8 |
|  | < 0.05 |  | 10 | 22 |  | 2.8 | B9 |
|  | 0.9 |  | 20 | 29 |  |  | B10 |
|  |  |  | 25 | 35 |  |  | B11 |
|  |  |  |  | 19 |  | 4 | B12 |
|  |  |  |  | 19 | 1.5 | 3.9 | B13 |
|  |  |  |  | 32 |  | 8.4 | B14 |
|  |  |  |  | 27 |  | 8.8 | B15 |
